# Reference: patent US20240270846A1 (published 2024)
# Target: T1, CD3 epsilon homodimer protein (UniProt P07766 23-126)
# T1 construct: Construct of the homodimer is not described; also called CD3 (CD3 epsilon)
# Assay: SPR Biacore T200, CD3e homodimer on chip, antibody analyte;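 note: CD3 epsilon homodimer amine-coupled on CM4 sensor chip, antibodies injected as analyte at 25 °C in HBS-EP+, ratio ≥0.8 taken as binding retained versus unaltered parent antibody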
# T1 sequence (P07766 23-126): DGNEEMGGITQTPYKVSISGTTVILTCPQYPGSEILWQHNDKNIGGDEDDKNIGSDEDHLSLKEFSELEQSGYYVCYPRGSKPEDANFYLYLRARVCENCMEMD
row,Binder,ratio of amounts bound (altered form/GLS3000)
1,"GLS3000 T92E one-arm antibody (antibody, human IgG1, kappa, L234A L235A, N297A, name in Kabat numbering) light: DIVMTQSPLSLPVTPGEPASISCRSSQSLVHSNRNTYLHWYQQKPGQAPRLLIYKVSNRFSGVPDRFSGSGSGTDFTLKISRVEAEDVGVYYCGQGEQVPYTFGQGTKLEIKRTVAAPSVFIFPPSDEQLKSGTASVVCLLNNFYPREAKVQWKVDNALQSGNSQESVTEQDSKDSTYSLSSTLTLSKADYEKHKVYACEVTHQGLSSPVTKSFNRGEC heavy: QVQLVESGGGVVQPGRSLRLSCAASGFTFSNAWMHWVRQAPGKGLEWVAQIKAKSNNYATYYAESVKGRFTISRDDSKNSLYLQMNSLKTEDTAVYYCRYVHYGAYYGVDAWGQGTTVTVSSASTKGPSVFPLAPSSKSTSGGTAALGCLVKDYFPEPVTVSWNSGALTSGVHTFPAVLQSSGLYSLSSVVTVPSSSLGTQTYICNVNHKPSNTKVDKKVEPKSCDKTHTCPPCPAPEAAGGPSVFLFPPKPKDTLMISRTPEVTCVVVDVSHEDPEVKFNWYVDGVEVHNAKTKPREEQYASTYRVVSVLTVLHQDWLNGKEYKCKVSNKALPAPIEKTISKAKGQPREPQVYTLPPSRCELTKNQVSLSCAVKGFYPSDIAVEWESNGQPENNYKTTPPVLDSDGSFFLVSKLTVDKSRWQQGNVFSCSVMHEALHNHYTQKSLSLSPDYKDDDDK EPKSSDKTHTCPPCPAPELLGGPSVFLFPPKPKDTLMISRTPEVTCVVVDVSHEDPEVKFNWYVDGVEVHNAKTKPREEQYNSTYRVVSVLTVLHQDWLNGKEYKCKVSNKALPAPIEKTISKAKGQPREPQVCTLPPSRDELTKNQVSLWCLVKGFYPSDIAVEWESNGQPENNYKTTPPVLDSDGSFFLYSKLTVDKSRWQQGNVFSCSVMHEALHNRYTQKSLSLSP",0.17
2,"GLS3000 T92L one-arm antibody (antibody, human IgG1, kappa, L234A L235A, N297A, name in Kabat numbering) light: DIVMTQSPLSLPVTPGEPASISCRSSQSLVHSNRNTYLHWYQQKPGQAPRLLIYKVSNRFSGVPDRFSGSGSGTDFTLKISRVEAEDVGVYYCGQGLQVPYTFGQGTKLEIKRTVAAPSVFIFPPSDEQLKSGTASVVCLLNNFYPREAKVQWKVDNALQSGNSQESVTEQDSKDSTYSLSSTLTLSKADYEKHKVYACEVTHQGLSSPVTKSFNRGEC heavy: QVQLVESGGGVVQPGRSLRLSCAASGFTFSNAWMHWVRQAPGKGLEWVAQIKAKSNNYATYYAESVKGRFTISRDDSKNSLYLQMNSLKTEDTAVYYCRYVHYGAYYGVDAWGQGTTVTVSSASTKGPSVFPLAPSSKSTSGGTAALGCLVKDYFPEPVTVSWNSGALTSGVHTFPAVLQSSGLYSLSSVVTVPSSSLGTQTYICNVNHKPSNTKVDKKVEPKSCDKTHTCPPCPAPEAAGGPSVFLFPPKPKDTLMISRTPEVTCVVVDVSHEDPEVKFNWYVDGVEVHNAKTKPREEQYASTYRVVSVLTVLHQDWLNGKEYKCKVSNKALPAPIEKTISKAKGQPREPQVYTLPPSRCELTKNQVSLSCAVKGFYPSDIAVEWESNGQPENNYKTTPPVLDSDGSFFLVSKLTVDKSRWQQGNVFSCSVMHEALHNHYTQKSLSLSPDYKDDDDK EPKSSDKTHTCPPCPAPELLGGPSVFLFPPKPKDTLMISRTPEVTCVVVDVSHEDPEVKFNWYVDGVEVHNAKTKPREEQYNSTYRVVSVLTVLHQDWLNGKEYKCKVSNKALPAPIEKTISKAKGQPREPQVCTLPPSRDELTKNQVSLWCLVKGFYPSDIAVEWESNGQPENNYKTTPPVLDSDGSFFLYSKLTVDKSRWQQGNVFSCSVMHEALHNRYTQKSLSLSP",0.42
3,"GLS3000 T92I one-arm antibody (antibody, human IgG1, kappa, L234A L235A, N297A, name in Kabat numbering) light: DIVMTQSPLSLPVTPGEPASISCRSSQSLVHSNRNTYLHWYQQKPGQAPRLLIYKVSNRFSGVPDRFSGSGSGTDFTLKISRVEAEDVGVYYCGQGIQVPYTFGQGTKLEIKRTVAAPSVFIFPPSDEQLKSGTASVVCLLNNFYPREAKVQWKVDNALQSGNSQESVTEQDSKDSTYSLSSTLTLSKADYEKHKVYACEVTHQGLSSPVTKSFNRGEC heavy: QVQLVESGGGVVQPGRSLRLSCAASGFTFSNAWMHWVRQAPGKGLEWVAQIKAKSNNYATYYAESVKGRFTISRDDSKNSLYLQMNSLKTEDTAVYYCRYVHYGAYYGVDAWGQGTTVTVSSASTKGPSVFPLAPSSKSTSGGTAALGCLVKDYFPEPVTVSWNSGALTSGVHTFPAVLQSSGLYSLSSVVTVPSSSLGTQTYICNVNHKPSNTKVDKKVEPKSCDKTHTCPPCPAPEAAGGPSVFLFPPKPKDTLMISRTPEVTCVVVDVSHEDPEVKFNWYVDGVEVHNAKTKPREEQYASTYRVVSVLTVLHQDWLNGKEYKCKVSNKALPAPIEKTISKAKGQPREPQVYTLPPSRCELTKNQVSLSCAVKGFYPSDIAVEWESNGQPENNYKTTPPVLDSDGSFFLVSKLTVDKSRWQQGNVFSCSVMHEALHNHYTQKSLSLSPDYKDDDDK EPKSSDKTHTCPPCPAPELLGGPSVFLFPPKPKDTLMISRTPEVTCVVVDVSHEDPEVKFNWYVDGVEVHNAKTKPREEQYNSTYRVVSVLTVLHQDWLNGKEYKCKVSNKALPAPIEKTISKAKGQPREPQVCTLPPSRDELTKNQVSLWCLVKGFYPSDIAVEWESNGQPENNYKTTPPVLDSDGSFFLYSKLTVDKSRWQQGNVFSCSVMHEALHNRYTQKSLSLSP",0.34

# Now from value to binder:
row,ratio of amounts bound (altered form/GLS3000),Binder
1,0.31,"GLS3000 T97P one-arm antibody (antibody, human IgG1, kappa, L234A L235A, N297A, name in Kabat numbering) light: DIVMTQSPLSLPVTPGEPASISCRSSQSLVHSNRNTYLHWYQQKPGQAPRLLIYKVSNRFSGVPDRFSGSGSGTDFTLKISRVEAEDVGVYYCGQGTQVPYPFGQGTKLEIKRTVAAPSVFIFPPSDEQLKSGTASVVCLLNNFYPREAKVQWKVDNALQSGNSQESVTEQDSKDSTYSLSSTLTLSKADYEKHKVYACEVTHQGLSSPVTKSFNRGEC heavy: QVQLVESGGGVVQPGRSLRLSCAASGFTFSNAWMHWVRQAPGKGLEWVAQIKAKSNNYATYYAESVKGRFTISRDDSKNSLYLQMNSLKTEDTAVYYCRYVHYGAYYGVDAWGQGTTVTVSSASTKGPSVFPLAPSSKSTSGGTAALGCLVKDYFPEPVTVSWNSGALTSGVHTFPAVLQSSGLYSLSSVVTVPSSSLGTQTYICNVNHKPSNTKVDKKVEPKSCDKTHTCPPCPAPEAAGGPSVFLFPPKPKDTLMISRTPEVTCVVVDVSHEDPEVKFNWYVDGVEVHNAKTKPREEQYASTYRVVSVLTVLHQDWLNGKEYKCKVSNKALPAPIEKTISKAKGQPREPQVYTLPPSRCELTKNQVSLSCAVKGFYPSDIAVEWESNGQPENNYKTTPPVLDSDGSFFLVSKLTVDKSRWQQGNVFSCSVMHEALHNHYTQKSLSLSPDYKDDDDK EPKSSDKTHTCPPCPAPELLGGPSVFLFPPKPKDTLMISRTPEVTCVVVDVSHEDPEVKFNWYVDGVEVHNAKTKPREEQYNSTYRVVSVLTVLHQDWLNGKEYKCKVSNKALPAPIEKTISKAKGQPREPQVCTLPPSRDELTKNQVSLWCLVKGFYPSDIAVEWESNGQPENNYKTTPPVLDSDGSFFLYSKLTVDKSRWQQGNVFSCSVMHEALHNRYTQKSLSLSP"
2,0.96,"GLS3000 T92S one-arm antibody (antibody, human IgG1, kappa, L234A L235A, N297A, name in Kabat numbering) light: DIVMTQSPLSLPVTPGEPASISCRSSQSLVHSNRNTYLHWYQQKPGQAPRLLIYKVSNRFSGVPDRFSGSGSGTDFTLKISRVEAEDVGVYYCGQGSQVPYTFGQGTKLEIKRTVAAPSVFIFPPSDEQLKSGTASVVCLLNNFYPREAKVQWKVDNALQSGNSQESVTEQDSKDSTYSLSSTLTLSKADYEKHKVYACEVTHQGLSSPVTKSFNRGEC heavy: QVQLVESGGGVVQPGRSLRLSCAASGFTFSNAWMHWVRQAPGKGLEWVAQIKAKSNNYATYYAESVKGRFTISRDDSKNSLYLQMNSLKTEDTAVYYCRYVHYGAYYGVDAWGQGTTVTVSSASTKGPSVFPLAPSSKSTSGGTAALGCLVKDYFPEPVTVSWNSGALTSGVHTFPAVLQSSGLYSLSSVVTVPSSSLGTQTYICNVNHKPSNTKVDKKVEPKSCDKTHTCPPCPAPEAAGGPSVFLFPPKPKDTLMISRTPEVTCVVVDVSHEDPEVKFNWYVDGVEVHNAKTKPREEQYASTYRVVSVLTVLHQDWLNGKEYKCKVSNKALPAPIEKTISKAKGQPREPQVYTLPPSRCELTKNQVSLSCAVKGFYPSDIAVEWESNGQPENNYKTTPPVLDSDGSFFLVSKLTVDKSRWQQGNVFSCSVMHEALHNHYTQKSLSLSPDYKDDDDK EPKSSDKTHTCPPCPAPELLGGPSVFLFPPKPKDTLMISRTPEVTCVVVDVSHEDPEVKFNWYVDGVEVHNAKTKPREEQYNSTYRVVSVLTVLHQDWLNGKEYKCKVSNKALPAPIEKTISKAKGQPREPQVCTLPPSRDELTKNQVSLWCLVKGFYPSDIAVEWESNGQPENNYKTTPPVLDSDGSFFLYSKLTVDKSRWQQGNVFSCSVMHEALHNRYTQKSLSLSP"
3,0.26,"GLS3000 T92P one-arm antibody (antibody, human IgG1, kappa, L234A L235A, N297A, name in Kabat numbering) light: DIVMTQSPLSLPVTPGEPASISCRSSQSLVHSNRNTYLHWYQQKPGQAPRLLIYKVSNRFSGVPDRFSGSGSGTDFTLKISRVEAEDVGVYYCGQGPQVPYTFGQGTKLEIKRTVAAPSVFIFPPSDEQLKSGTASVVCLLNNFYPREAKVQWKVDNALQSGNSQESVTEQDSKDSTYSLSSTLTLSKADYEKHKVYACEVTHQGLSSPVTKSFNRGEC heavy: QVQLVESGGGVVQPGRSLRLSCAASGFTFSNAWMHWVRQAPGKGLEWVAQIKAKSNNYATYYAESVKGRFTISRDDSKNSLYLQMNSLKTEDTAVYYCRYVHYGAYYGVDAWGQGTTVTVSSASTKGPSVFPLAPSSKSTSGGTAALGCLVKDYFPEPVTVSWNSGALTSGVHTFPAVLQSSGLYSLSSVVTVPSSSLGTQTYICNVNHKPSNTKVDKKVEPKSCDKTHTCPPCPAPEAAGGPSVFLFPPKPKDTLMISRTPEVTCVVVDVSHEDPEVKFNWYVDGVEVHNAKTKPREEQYASTYRVVSVLTVLHQDWLNGKEYKCKVSNKALPAPIEKTISKAKGQPREPQVYTLPPSRCELTKNQVSLSCAVKGFYPSDIAVEWESNGQPENNYKTTPPVLDSDGSFFLVSKLTVDKSRWQQGNVFSCSVMHEALHNHYTQKSLSLSPDYKDDDDK EPKSSDKTHTCPPCPAPELLGGPSVFLFPPKPKDTLMISRTPEVTCVVVDVSHEDPEVKFNWYVDGVEVHNAKTKPREEQYNSTYRVVSVLTVLHQDWLNGKEYKCKVSNKALPAPIEKTISKAKGQPREPQVCTLPPSRDELTKNQVSLWCLVKGFYPSDIAVEWESNGQPENNYKTTPPVLDSDGSFFLYSKLTVDKSRWQQGNVFSCSVMHEALHNRYTQKSLSLSP"
